Experimental data published in patent publication US7892771B2, “Crystal structure of soluble glutaminyl cyclase” (Academia Sinica, priority 2006, dated 2011).

B1: R54W: site-directed mutant R54W of human QC (protein)
chain: MAGGRHRRVVGTLHLLLLVAALPWASRGVSPSASAWPEEKNYHQPAILNSSALWQIAEGTSISEMWQNDLQPLLIERYPGSPGSYAARQHIMQRIQRLQADWVLEIDTFLSQTPYGYRSFSNIISTLNPTAKRHLVLACHYDSKYFSHWNNRVFVGATDSAVPCAMMLELARALDKKLLSLKTVSDSKPDLSLQLIFFDGEEAFLHWSPQDSLYGSRHLAAKMASTPHPPGARGTSQLHGMDLLVLLDLIGAPNPTFPNFFPNSARWFERLQAIEHELHELGLLKDHSLEGRYFQNYSYGGVIQDDHIPFLRRGVPVLHLIPSPFPEVWHTMDDNEENLDESTIDNLNKILQVFVLEYLHL
B2: W207L: site-directed mutant W207L of human QC (protein)
chain: MAGGRHRRVVGTLHLLLLVAALPWASRGVSPSASAWPEEKNYHQPAILNSSALRQIAEGTSISEMWQNDLQPLLIERYPGSPGSYAARQHIMQRIQRLQADWVLEIDTFLSQTPYGYRSFSNIISTLNPTAKRHLVLACHYDSKYFSHWNNRVFVGATDSAVPCAMMLELARALDKKLLSLKTVSDSKPDLSLQLIFFDGEEAFLHLSPQDSLYGSRHLAAKMASTPHPPGARGTSQLHGMDLLVLLDLIGAPNPTFPNFFPNSARWFERLQAIEHELHELGLLKDHSLEGRYFQNYSYGGVIQDDHIPFLRRGVPVLHLIPSPFPEVWHTMDDNEENLDESTIDNLNKILQVFVLEYLHL
B3: E201D: site-directed mutant E201D of human QC (protein)
chain: MAGGRHRRVVGTLHLLLLVAALPWASRGVSPSASAWPEEKNYHQPAILNSSALRQIAEGTSISEMWQNDLQPLLIERYPGSPGSYAARQHIMQRIQRLQADWVLEIDTFLSQTPYGYRSFSNIISTLNPTAKRHLVLACHYDSKYFSHWNNRVFVGATDSAVPCAMMLELARALDKKLLSLKTVSDSKPDLSLQLIFFDGDEAFLHWSPQDSLYGSRHLAAKMASTPHPPGARGTSQLHGMDLLVLLDLIGAPNPTFPNFFPNSARWFERLQAIEHELHELGLLKDHSLEGRYFQNYSYGGVIQDDHIPFLRRGVPVLHLIPSPFPEVWHTMDDNEENLDESTIDNLNKILQVFVLEYLHL
B4: K144A: site-directed mutant K144A of human QC (protein)
chain: MAGGRHRRVVGTLHLLLLVAALPWASRGVSPSASAWPEEKNYHQPAILNSSALRQIAEGTSISEMWQNDLQPLLIERYPGSPGSYAARQHIMQRIQRLQADWVLEIDTFLSQTPYGYRSFSNIISTLNPTAKRHLVLACHYDSAYFSHWNNRVFVGATDSAVPCAMMLELARALDKKLLSLKTVSDSKPDLSLQLIFFDGEEAFLHWSPQDSLYGSRHLAAKMASTPHPPGARGTSQLHGMDLLVLLDLIGAPNPTFPNFFPNSARWFERLQAIEHELHELGLLKDHSLEGRYFQNYSYGGVIQDDHIPFLRRGVPVLHLIPSPFPEVWHTMDDNEENLDESTIDNLNKILQVFVLEYLHL
B5: F325A: site-directed mutant F325A of human QC (protein)
chain: MAGGRHRRVVGTLHLLLLVAALPWASRGVSPSASAWPEEKNYHQPAILNSSALRQIAEGTSISEMWQNDLQPLLIERYPGSPGSYAARQHIMQRIQRLQADWVLEIDTFLSQTPYGYRSFSNIISTLNPTAKRHLVLACHYDSKYFSHWNNRVFVGATDSAVPCAMMLELARALDKKLLSLKTVSDSKPDLSLQLIFFDGEEAFLHWSPQDSLYGSRHLAAKMASTPHPPGARGTSQLHGMDLLVLLDLIGAPNPTFPNFFPNSARWFERLQAIEHELHELGLLKDHSLEGRYFQNYSYGGVIQDDHIPFLRRGVPVLHLIPSPAPEVWHTMDDNEENLDESTIDNLNKILQVFVLEYLHL
B6: W207F: site-directed mutant W207F of human QC (protein)
chain: MAGGRHRRVVGTLHLLLLVAALPWASRGVSPSASAWPEEKNYHQPAILNSSALRQIAEGTSISEMWQNDLQPLLIERYPGSPGSYAARQHIMQRIQRLQADWVLEIDTFLSQTPYGYRSFSNIISTLNPTAKRHLVLACHYDSKYFSHWNNRVFVGATDSAVPCAMMLELARALDKKLLSLKTVSDSKPDLSLQLIFFDGEEAFLHFSPQDSLYGSRHLAAKMASTPHPPGARGTSQLHGMDLLVLLDLIGAPNPTFPNFFPNSARWFERLQAIEHELHELGLLKDHSLEGRYFQNYSYGGVIQDDHIPFLRRGVPVLHLIPSPFPEVWHTMDDNEENLDESTIDNLNKILQVFVLEYLHL
B7: Q304L: site-directed mutant Q304L of human QC (protein)
chain: MAGGRHRRVVGTLHLLLLVAALPWASRGVSPSASAWPEEKNYHQPAILNSSALRQIAEGTSISEMWQNDLQPLLIERYPGSPGSYAARQHIMQRIQRLQADWVLEIDTFLSQTPYGYRSFSNIISTLNPTAKRHLVLACHYDSKYFSHWNNRVFVGATDSAVPCAMMLELARALDKKLLSLKTVSDSKPDLSLQLIFFDGEEAFLHWSPQDSLYGSRHLAAKMASTPHPPGARGTSQLHGMDLLVLLDLIGAPNPTFPNFFPNSARWFERLQAIEHELHELGLLKDHSLEGRYFQNYSYGGVILDDHIPFLRRGVPVLHLIPSPFPEVWHTMDDNEENLDESTIDNLNKILQVFVLEYLHL
B8: F146A: site-directed mutant F146A of human QC (protein)
chain: MAGGRHRRVVGTLHLLLLVAALPWASRGVSPSASAWPEEKNYHQPAILNSSALRQIAEGTSISEMWQNDLQPLLIERYPGSPGSYAARQHIMQRIQRLQADWVLEIDTFLSQTPYGYRSFSNIISTLNPTAKRHLVLACHYDSKYASHWNNRVFVGATDSAVPCAMMLELARALDKKLLSLKTVSDSKPDLSLQLIFFDGEEAFLHWSPQDSLYGSRHLAAKMASTPHPPGARGTSQLHGMDLLVLLDLIGAPNPTFPNFFPNSARWFERLQAIEHELHELGLLKDHSLEGRYFQNYSYGGVIQDDHIPFLRRGVPVLHLIPSPFPEVWHTMDDNEENLDESTIDNLNKILQVFVLEYLHL
B9: W329A: site-directed mutant W329A of human QC (protein)
chain: MAGGRHRRVVGTLHLLLLVAALPWASRGVSPSASAWPEEKNYHQPAILNSSALRQIAEGTSISEMWQNDLQPLLIERYPGSPGSYAARQHIMQRIQRLQADWVLEIDTFLSQTPYGYRSFSNIISTLNPTAKRHLVLACHYDSKYFSHWNNRVFVGATDSAVPCAMMLELARALDKKLLSLKTVSDSKPDLSLQLIFFDGEEAFLHWSPQDSLYGSRHLAAKMASTPHPPGARGTSQLHGMDLLVLLDLIGAPNPTFPNFFPNSARWFERLQAIEHELHELGLLKDHSLEGRYFQNYSYGGVIQDDHIPFLRRGVPVLHLIPSPFPEVAHTMDDNEENLDESTIDNLNKILQVFVLEYLHL

What follows are molecules tested on human QC (assay: Kinetic parameters of wild-type and mutant human QC). Details: pH 8.0.
Format: biochemical
B1 showed a Km of 760 ± 40 µM and a kcat of 7.35 ± 0.26 s⁻¹. For B2, the Km was 1770 ± 70 µM and the kcat was 0.43 ± 0.01 s⁻¹. B3 gave a Km of 12600 ± 2980 µM and a kcat of 0.87 ± 0.28 s⁻¹. B4 showed a Km of 1470 ± 20 µM and a kcat of 11.67 ± 0.34 s⁻¹. In the case of B5, the Km is reported as 4670 ± 240 µM and the kcat is reported as 12.91 ± 0.06 s⁻¹. Molecule B6 has a Km of 590 ± 50 µM and a kcat of 2.32 ± 0.07 s⁻¹. In the case of B7, the Km is reported as 1160 ± 90 µM and the kcat is reported as 9.39 ± 1.18 s⁻¹. B8 was tested, and the Km was 820 ± 160 µM and the kcat was 7.91 ± 2.14 s⁻¹. With B9 the Km was 29500 ± 2290 µM and the kcat was 1.35 ± 0.07 s⁻¹.
